Source: PMC9491731 (PLoS Genetics, 2022)

Target: T1, WT CcdB (Controller of Cell Death protein B) (Escherichia coli (F-plasmid), UniProt P62554)
T1 construct: also called CcdB-WT
Assay: thermal shift assay (Sypro orange)
Settings: both partners purified

B1: CcdA peptide (45–72) (peptide)
peptide: KAENQEGMAEVARFIEMNGSFADENRDW
  binding result: binds
